Key:
Experiment in all cases: cell-based or functional assay
Fas (human) = Fas (human) (UniProt P25445)
[1] = molecular target: B7-2 (CD28 ligand) on mouse lymph node accessory cells (mouse) (UniProt P42082)
[2] = molecular target: B7-1 (CD28 ligand) on mouse lymph node accessory cells (mouse) (UniProt Q00609)
UniProt Q00609, sequence (Q00609 38-306): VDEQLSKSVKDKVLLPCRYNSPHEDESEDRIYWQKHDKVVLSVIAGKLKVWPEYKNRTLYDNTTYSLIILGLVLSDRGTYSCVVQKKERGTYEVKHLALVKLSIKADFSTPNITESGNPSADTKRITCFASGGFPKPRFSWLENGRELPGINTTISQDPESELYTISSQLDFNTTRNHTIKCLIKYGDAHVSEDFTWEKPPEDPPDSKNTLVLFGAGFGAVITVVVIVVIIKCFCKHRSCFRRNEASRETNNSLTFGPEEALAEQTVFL

UniProt P25445, sequence (P25445 26-335): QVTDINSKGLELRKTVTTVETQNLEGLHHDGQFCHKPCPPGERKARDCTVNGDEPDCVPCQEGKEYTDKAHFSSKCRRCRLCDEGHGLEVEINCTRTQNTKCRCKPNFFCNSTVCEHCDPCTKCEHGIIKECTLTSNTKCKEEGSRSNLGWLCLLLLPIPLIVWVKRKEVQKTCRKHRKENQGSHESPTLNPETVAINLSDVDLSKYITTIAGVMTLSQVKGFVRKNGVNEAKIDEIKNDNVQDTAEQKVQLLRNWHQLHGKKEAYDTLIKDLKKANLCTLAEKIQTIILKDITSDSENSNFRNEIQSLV
UniProt P42082, sequence (P42082 24-309): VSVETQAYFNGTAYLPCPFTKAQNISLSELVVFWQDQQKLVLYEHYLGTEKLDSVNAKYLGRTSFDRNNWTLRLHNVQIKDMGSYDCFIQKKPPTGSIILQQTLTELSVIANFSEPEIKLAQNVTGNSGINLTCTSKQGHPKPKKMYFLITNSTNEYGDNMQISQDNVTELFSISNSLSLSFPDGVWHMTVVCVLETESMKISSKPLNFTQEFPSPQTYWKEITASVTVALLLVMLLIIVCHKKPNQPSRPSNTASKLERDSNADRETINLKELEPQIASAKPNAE

Row | Substance | viability of Jurkat Neo control clones after Fas antibody at 10 ng/ml (Fas (human)) [%] | viability of the activated T cells at 72 hrs [1] [%] | viability of the activated T cells at 72 hrs [2] [%]
1 | CH-11 anti-Fas monoclonal antibody (Panvera) | < 10 |  | 
2 | CTLA4Ig (from Repligen) (Fc fusion) |  | 20 | 20

— patent publication US20060199780A1
